Here are results for 9 molecules from patent publication US20250084142A1 (INTARCIA THERAPEUTICS, published 2025).

Starred links: 1 amine or outer side, 2 acyl side, 3 side chain; linkers in the order of their positions; H or OH if unused. Positions of bridges follow the written chain, without caps; N, C: chain ends. Non-standard residues stand in square brackets, D forms with d. Groups on a side chain read outwards from the residue. No end group written: not given here. *: point of attachment. Phe(4-COOH) = N[C@@H](Cc1ccc(C(=O)O)cc1)C(=O)O; C20 diacid = O=C(O)CCCCCCCCCCCCCCCCCCC(=O)*; C19 diacid = O=C(O)CCCCCCCCCCCCCCCCCC(=O)*; C18 diacid = O=C(O)CCCCCCCCCCCCCCCCC(=O)*; γGlu = O=C(O)[C@H](CCC(=O)[*:2])N[*:1]

The target in one experiment is T1, NPY5R.
T1 sequence (Q15761 1-445, species assumed, looked up): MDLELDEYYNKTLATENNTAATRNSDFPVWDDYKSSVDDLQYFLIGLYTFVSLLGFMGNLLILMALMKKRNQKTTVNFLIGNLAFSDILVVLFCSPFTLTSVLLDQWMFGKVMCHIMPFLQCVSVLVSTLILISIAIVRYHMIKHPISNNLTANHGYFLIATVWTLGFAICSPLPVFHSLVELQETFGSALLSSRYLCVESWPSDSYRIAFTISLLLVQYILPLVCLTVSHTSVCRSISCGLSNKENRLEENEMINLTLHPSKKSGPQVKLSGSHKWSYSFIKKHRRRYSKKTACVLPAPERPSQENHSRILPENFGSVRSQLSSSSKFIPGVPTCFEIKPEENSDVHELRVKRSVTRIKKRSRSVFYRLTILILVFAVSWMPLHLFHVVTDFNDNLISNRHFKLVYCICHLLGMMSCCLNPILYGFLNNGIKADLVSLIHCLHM
Put plainly: cell-based or functional assay.

In the next experiment the target is T2, NPY2R.
T2 sequence (P49146 1-381, species assumed, looked up): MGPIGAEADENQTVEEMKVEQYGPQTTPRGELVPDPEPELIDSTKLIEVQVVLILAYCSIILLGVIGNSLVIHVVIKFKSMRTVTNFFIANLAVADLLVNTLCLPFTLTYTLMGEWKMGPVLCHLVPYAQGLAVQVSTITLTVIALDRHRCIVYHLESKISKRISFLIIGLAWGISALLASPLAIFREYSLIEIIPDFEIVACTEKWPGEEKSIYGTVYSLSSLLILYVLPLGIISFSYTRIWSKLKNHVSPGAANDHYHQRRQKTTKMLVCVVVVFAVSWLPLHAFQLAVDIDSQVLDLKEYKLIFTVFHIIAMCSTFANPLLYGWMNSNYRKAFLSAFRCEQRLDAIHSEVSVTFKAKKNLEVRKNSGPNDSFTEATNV
The experiment can be described thus: cell-based or functional assay.

B1: Compound A40 (peptide)
peptide: PKPEKPGK([γGlu-γGlu-C19 diacid])DASPKEWDRYYKDLRHYLNWLTRQRF-NH2
modifications: lactam 16-20; N-terminus assumed
SMILES: CC(C)C[C@H](NC(=O)[C@H](CC(=O)O)NC(=O)[C@@H]1CCCCNC(=O)C[C@H](NC(=O)[C@H](Cc2c[nH]c3ccccc23)NC(=O)[C@H](CCC(=O)O)NC(=O)[C@H](CCCCN)NC(=O)[C@@H]2CCCN2C(=O)[C@H](CO)NC(=O)[C@H](C)NC(=O)[C@H](CC(=O)O)NC(=O)[C@H](CCCCNC(=O)CC[C@H](NC(=O)CC[C@H](NC(=O)CCCCCCCCCCCCCCCCCC(=O)O)C(=O)O)C(=O)O)NC(=O)CNC(=O)[C@@H]2CCCN2C(=O)[C@H](CCCCN)NC(=O)[C@H](CCC(=O)O)NC(=O)[C@@H]2CCCN2C(=O)[C@H](CCCCN)NC(=O)[C@@H]2CCCN2)C(=O)N[C@@H](CCCNC(=N)N)C(=O)N[C@@H](Cc2ccc(O)cc2)C(=O)N[C@@H](Cc2ccc(O)cc2)C(=O)N1)C(=O)N[C@@H](CCCNC(=N)N)C(=O)N[C@@H](Cc1c[nH]cn1)C(=O)N[C@@H](Cc1ccc(O)cc1)C(=O)N[C@@H](CC(C)C)C(=O)N[C@@H](CC(N)=O)C(=O)N[C@@H](Cc1c[nH]c2ccccc12)C(=O)N[C@@H](CC(C)C)C(=O)N[C@H](C(=O)N[C@@H](CCCNC(=N)N)C(=O)N[C@@H](CCC(N)=O)C(=O)N[C@@H](CCCNC(=N)N)C(=O)N[C@@H](Cc1ccccc1)C(N)=O)[C@@H](C)O
With B1, in the experiment with NPY5R, the “NPY5R pEC50” value is 9 -Log(EC50, M).

B2: Compound A41 (peptide)
peptide: PKPEAPGK([γGlu-γGlu-C20 diacid])DASPEEWERYYKDLRHYLNWLTRQRF-NH2
modifications: lactam 16-20
With B2, the “NPY5R pEC50” value in the experiment with NPY5R was 9.3 -Log(EC50, M). For the same molecule, in the experiment with NPY2R, the “NPY2R pEC50” value was 10.5 -Log(EC50, M).

B3: Compound A38 (peptide)
peptide: PKPEK([γGlu-γGlu-C18 diacid])PGEDASPKEWNRYYKDLRHYLNWLTRQRF-NH2
modifications: N-terminus assumed
SMILES: CC(C)C[C@H](NC(=O)[C@H](CC(=O)O)NC(=O)[C@H](CCCCN)NC(=O)[C@H](Cc1ccc(O)cc1)NC(=O)[C@H](Cc1ccc(O)cc1)NC(=O)[C@H](CCCNC(=N)N)NC(=O)[C@H](CC(N)=O)NC(=O)[C@H](Cc1c[nH]c2ccccc12)NC(=O)[C@H](CCC(=O)O)NC(=O)[C@H](CCCCN)NC(=O)[C@@H]1CCCN1C(=O)[C@H](CO)NC(=O)[C@H](C)NC(=O)[C@H](CC(=O)O)NC(=O)[C@H](CCC(=O)O)NC(=O)CNC(=O)[C@@H]1CCCN1C(=O)[C@H](CCCCNC(=O)CC[C@H](NC(=O)CC[C@H](NC(=O)CCCCCCCCCCCCCCCCC(=O)O)C(=O)O)C(=O)O)NC(=O)[C@H](CCC(=O)O)NC(=O)[C@@H]1CCCN1C(=O)[C@H](CCCCN)NC(=O)[C@@H]1CCCN1)C(=O)N[C@@H](CCCNC(=N)N)C(=O)N[C@@H](Cc1c[nH]cn1)C(=O)N[C@@H](Cc1ccc(O)cc1)C(=O)N[C@@H](CC(C)C)C(=O)N[C@@H](CC(N)=O)C(=O)N[C@@H](Cc1c[nH]c2ccccc12)C(=O)N[C@@H](CC(C)C)C(=O)N[C@H](C(=O)N[C@@H](CCCNC(=N)N)C(=O)N[C@@H](CCC(N)=O)C(=O)N[C@@H](CCCNC(=N)N)C(=O)N[C@@H](Cc1ccccc1)C(N)=O)[C@@H](C)O
For B3, the “NPY5R pEC50” value in the experiment with NPY5R is 8.4 -Log(EC50, M).

B4: Compound A43 (peptide)
peptide: PKPEAPGK([γGlu-γGlu-C20 diacid])DASPEEWKRYYEDLRHYLNWLTRQRF-NH2
modifications: lactam 16-20
Turning to B4, the “NPY5R pEC50” value with NPY5R was 8.5 -Log(EC50, M). For the same molecule, the “NPY2R pEC50” value with NPY2R is 10.5 -Log(EC50, M).

B5: Compound A75 (peptide)
peptide: PKPEKPGK([γGlu-γGlu-C20 diacid])DASPEEWSRYYKDLRHYLNWLTRQRF-NH2
modifications: N-terminus assumed
SMILES: CC(C)C[C@H](NC(=O)[C@H](CC(=O)O)NC(=O)[C@H](CCCCN)NC(=O)[C@H](Cc1ccc(O)cc1)NC(=O)[C@H](Cc1ccc(O)cc1)NC(=O)[C@H](CCCNC(=N)N)NC(=O)[C@H](CO)NC(=O)[C@H](Cc1c[nH]c2ccccc12)NC(=O)[C@H](CCC(=O)O)NC(=O)[C@H](CCC(=O)O)NC(=O)[C@@H]1CCCN1C(=O)[C@H](CO)NC(=O)[C@H](C)NC(=O)[C@H](CC(=O)O)NC(=O)[C@H](CCCCNC(=O)CC[C@H](NC(=O)CC[C@H](NC(=O)CCCCCCCCCCCCCCCCCCC(=O)O)C(=O)O)C(=O)O)NC(=O)CNC(=O)[C@@H]1CCCN1C(=O)[C@H](CCCCN)NC(=O)[C@H](CCC(=O)O)NC(=O)[C@@H]1CCCN1C(=O)[C@H](CCCCN)NC(=O)[C@@H]1CCCN1)C(=O)N[C@@H](CCCNC(=N)N)C(=O)N[C@@H](Cc1c[nH]cn1)C(=O)N[C@@H](Cc1ccc(O)cc1)C(=O)N[C@@H](CC(C)C)C(=O)N[C@@H](CC(N)=O)C(=O)N[C@@H](Cc1c[nH]c2ccccc12)C(=O)N[C@@H](CC(C)C)C(=O)N[C@H](C(=O)N[C@@H](CCCNC(=N)N)C(=O)N[C@@H](CCC(N)=O)C(=O)N[C@@H](CCCNC(=N)N)C(=O)N[C@@H](Cc1ccccc1)C(N)=O)[C@@H](C)O
Regarding B5, the “NPY5R pEC50” value with NPY5R is 9.3 -Log(EC50, M).

B6: Compound A42 (peptide)
peptide: PKPEAPGK([γGlu-γGlu-C20 diacid])DASPEEWDRYYKDLRHYLNWLTRQRF-NH2
modifications: lactam 16-20
Take B6: the “NPY5R pEC50” value in the experiment with NPY5R is 9.1 -Log(EC50, M). In addition, in the experiment with NPY2R, the “NPY2R pEC50” value is 10.3 -Log(EC50, M).

B7: Compound A37 (peptide)
peptide: PKPEK([γGlu-γGlu-C20 diacid])PGKDASPKEWNRYYKDLRHYLNWLTRQRF-NH2
modifications: N-terminus assumed
SMILES: CC(C)C[C@H](NC(=O)[C@H](CC(=O)O)NC(=O)[C@H](CCCCN)NC(=O)[C@H](Cc1ccc(O)cc1)NC(=O)[C@H](Cc1ccc(O)cc1)NC(=O)[C@H](CCCNC(=N)N)NC(=O)[C@H](CC(N)=O)NC(=O)[C@H](Cc1c[nH]c2ccccc12)NC(=O)[C@H](CCC(=O)O)NC(=O)[C@H](CCCCN)NC(=O)[C@@H]1CCCN1C(=O)[C@H](CO)NC(=O)[C@H](C)NC(=O)[C@H](CC(=O)O)NC(=O)[C@H](CCCCN)NC(=O)CNC(=O)[C@@H]1CCCN1C(=O)[C@H](CCCCNC(=O)CC[C@H](NC(=O)CC[C@H](NC(=O)CCCCCCCCCCCCCCCCCCC(=O)O)C(=O)O)C(=O)O)NC(=O)[C@H](CCC(=O)O)NC(=O)[C@@H]1CCCN1C(=O)[C@H](CCCCN)NC(=O)[C@@H]1CCCN1)C(=O)N[C@@H](CCCNC(=N)N)C(=O)N[C@@H](Cc1c[nH]cn1)C(=O)N[C@@H](Cc1ccc(O)cc1)C(=O)N[C@@H](CC(C)C)C(=O)N[C@@H](CC(N)=O)C(=O)N[C@@H](Cc1c[nH]c2ccccc12)C(=O)N[C@@H](CC(C)C)C(=O)N[C@H](C(=O)N[C@@H](CCCNC(=N)N)C(=O)N[C@@H](CCC(N)=O)C(=O)N[C@@H](CCCNC(=N)N)C(=O)N[C@@H](Cc1ccccc1)C(N)=O)[C@@H](C)O
For B7, the “NPY5R pEC50” value with NPY5R is 8.6 -Log(EC50, M). For the same molecule, in the experiment with NPY2R, the “NPY2R pEC50” value was 10.8 -Log(EC50, M).

B8: Compound A44 (peptide)
peptide: PKPEAPGK([γGlu-γGlu-C20 diacid])DASPEEWKRYYDDLRHYLNWLTRQRF-NH2
modifications: lactam 16-20
On to B8, for which the “NPY5R pEC50” value in the experiment with NPY5R was 9.2 -Log(EC50, M). The “NPY2R pEC50” value with NPY2R was 9.7 -Log(EC50, M).

B9: Compound A59 (peptide)
peptide: PKPEAPGK([γGlu-γGlu-C20 diacid])DASPEEWNRYYADLRHYLNWLTRQR[Phe(4-COOH)]-NH2
Turning to B9, the “NPY5R pEC50” value with NPY5R is 6 -Log(EC50, M).
